Assay results: patent US9315793B2, “Enzymes that synthesize zingiberene” (Board of Trustees of Michigan State University, priority 2011, dated 2016)

Assay: Substrate specificity of recombinant LA2167-ZIS (GPP, NPP, EE-FPP or 2Z,6Z-FPP), GC-MS of products
Format: biochemical, Solanum habrochaites
Settings: for substrate giving zingiberene (substrate specificity): no substrate, GPP, NPP, 2Z,6Z-FPP and E,E-FPP compared
Description: The synthetic gene was excised from the pUC57 cloning vector by digestion with BamHI and SalI and ligated into the pHIS8 vector previously linearized by digestion with the same enzymes. Recombinant clones were transformed into E. coli BL21 cells. A 5-mL log-phase culture of E. coli BL21 cells containing the expression vector was induced by addition of IPTG to a final concentration of 0.1 mM. The induced cells were incubated with agitation at 25° C. for 16 h, and then harvested by centrifugation at 10,000 g for 15 min. The cell pellet was resuspended in 1 mL extraction buffer (50 mM HEPES pH 8, 5% glycerol, 100 mM KCl, 7.5 mM MgCl2 containing 1 mM dithiothreitol (DTT)) prior to sonication. Soluble proteins were harvested after centrifugation at 10,000 g for 20 min. The supernatant was used for subsequent enzyme assays. Two micrograms of soluble protein were mixed with 10 μM of substrate (GPP, NPP, EE-FPP or 2Z,6Z-FPP (Echelon Biosciences Inc., Salt Lake City, Utah)) in a 2-mL glass vial. Reactions were allowed to proceed for 30 min at 30° C., and the glass vial headspace was collected with a 65 μm polydimethylsiloxane-divinylbenzene solid-phase microextraction fiber (Supelco, Bellefonte, Pa.). After 5 min of exposure at 42° C., the SPME fiber was retracted and transferred to the GC injector port for desorption at 200° C. onto the GC column for 3 min. The terpenes were separated on a DB5 column (10 m length, inner diameter and 0.25 um). The GC-MS analysis was performed as described previously […] et al. (Plant Physiol 153, 1212-1223 (2010)).

B1: LA2167-ZIS: sesquiterpene (zingiberene) synthase of Solanum habrochaites accession LA2167, SEQ ID NO:2; codon-optimized form lacking chloroplast transit sequence SEQ ID NO:4 (protein)
chain: MIVGYRSTIITLSHPKLGNGKTISSNAIFRRSCRVRCSHSTPSSMNGFEDARDRIRESFGKVELSPSSYDTAWVAMVPSKHSLNEPCFPQCLDWIIENQREDGSWGLNPSHPLLLKDSLSSTLACLLALTKWRVGDEQIKRGLGFIETQSWAIDNKDQISPLGFEIIFPSMIKSAEKLNLNLAINKRDSTIKRALQNEFTRNIEYMSEGFGELCDWKEIIKLHQRQNGSLFDSPATTAAALIYHQHDKKCYEYLNSILQQHKNWVPTMYPTKIHSLLCLVDTLQNLGVHRHFKSEIKKALDEIYRLWQQKNEEIFSNVTHCAMAFRLLRISYYDVSSDELAEFVDEEHFFATSGKYTSHVEILELHKASQLAIDHEKDDILDKINNWTRTFMEQKLLNNGFIDRMSKKEVELALRNFYIISDLAENRRYIKSYEENNFKILKAAYRSPNINNKDLFIFSIRDFELCQAQHQEELQQLKRWFEDCRLDQLGLSEQFISASYLCAIPIVPGPELSDARLVYAKYVMLLTIVDDHFESFASTDECLNIIELVERWDDYASVGYKSERVKVLFSMFYKSIEEIATIAEIKQGRSVKNHLINLWLKVMKLMLMERVEWCSGKTIPRIEEYLYVSSITFGSRLIPLTTQYFIGIKISKDLLESDEIYGLCNFTGIVLRLLNDLQDSKREQKEGSINLVTLLMKSISEEEAIMKMKEILEMKRRELFKMVLVQKKGSQLPQLCKEIFWRTCKWAHFTYSQTDRYRFPEEMENHIDEVFYKPLNH
modifications: Solanum habrochaites
product synthesis with geranyl diphosphate (GPP) as substrate (GPP supplied as substrate): failed to synthesize any products
product synthesis with neryl diphosphate (NPP) as substrate (NPP supplied as substrate): failed to synthesize any products
substrate giving zingiberene (substrate specificity): only observed when 2Z,6Z-farnesyl diphosphate is used as substrate
substrate giving zingiberene (substrate specificity) (listed as zingiberene synthase from accession LA2167): only uses 2Z,6Z-farnesyl diphosphate
